Measurements reported in the supplement of paper PMC10567573.

B1: ZNF263 (parent)
chain: PEASHLRFRRFRFQEAAGPREALS

Variants of: B1
Assay: protein stability index of a GFP-peptide fusion (GPS, HEK-293T) (PSI 1-6); higher = more stable
Details: c terminus: a fixed tail appended
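Also: lentivirally expressed fusions sorted by FACS into six bins by GFP to DsRed ratio, PSI derived from sequencing read proportions per bin multiplied by bin number.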

**Q.** For PEASHLRFYRFRFQEAAGPREALS [R9Y], which protein stability index is on record?
**A.** 1.96

**Q.** For PEASHLRFSRFRFQEAAGPREALS [R9S], which protein stability index is on record?
**A.** 3.8

**Q.** For PEASHLRFNRFRFQEAAGPREALS [R9N], which protein stability index is on record?
**A.** 3.08

**Q.** For PEASHLRFRRFRFQECAGPREALS [A16C], which protein stability index is on record?
**A.** 2.19

**Q.** Which protein stability index does the source give for PEASHLRFRRFRFQEPAGPREALS [A16P] here?
**A.** 3.25

**Q.** Which protein stability index does the source give for PEASHLRFRRFRFQEGAGPREALS [A16G] here?
**A.** 2.43

**Q.** With PEASHLRFRRFRFQEFAGPREALS [A16F] as the variant, how does the protein stability index read?
**A.** 1.59

**Q.** Which protein stability index does the source give for PEESHLRFRRFRFQEAAGPREALS [A3E] here?
**A.** 2.82

**Q.** Which protein stability index does the source give for PESSHLRFRRFRFQEAAGPREALS [A3S] here?
**A.** 2.59

**Q.** Which protein stability index does the source give for PEDSHLRFRRFRFQEAAGPREALS [A3D] here?
**A.** 3.1

**Q.** With PELSHLRFRRFRFQEAAGPREALS [A3L] as the variant, how does the protein stability index read?
**A.** 2.4

**Q.** With PEVSHLRFRRFRFQEAAGPREALS [A3V] as the variant, how does the protein stability index read?
**A.** 1.73

**Q.** For PEFSHLRFRRFRFQEAAGPREALS [A3F], which protein stability index is on record?
**A.** 2.8

**Q.** Which protein stability index does the source give for PEASHLRFRRFRFQEAAGPRNALS [E21N] here?
**A.** 2.71

**Q.** For PEASHLRFRRFRFQEAAGPRFALS [E21F], which protein stability index is on record?
**A.** 2.34

**Q.** Which protein stability index does the source give for PEASHLRFRRFRFQEAAGPRPALS [E21P] here?
**A.** 2.89

**Q.** With PEASHLRFRRFRFQEAAGPRKALS [E21K] as the variant, how does the protein stability index read?
**A.** 2.45

**Q.** With PEASHLRFRRFRFQEAAGPRSALS [E21S] as the variant, how does the protein stability index read?
**A.** 2.74

**Q.** Which protein stability index does the source give for PEASHLRIRRFRFQEAAGPREALS [F8I] here?
**A.** 3.43

**Q.** Which protein stability index does the source give for PEASHLRNRRFRFQEAAGPREALS [F8N] here?
**A.** 3.46

**Q.** For PEASHLRFRRFRFQEAAGPREQLS [A22Q], which protein stability index is on record?
**A.** 2.78

**Q.** Which protein stability index does the source give for PEASHLRFRRFRFQEAAGPREGLS [A22G] here?
**A.** 2.98

**Q.** With PEASHLLFRRFRFQEAAGPREALS [R7L] as the variant, how does the protein stability index read?
**A.** 2.08

**Q.** For PEASHLGFRRFRFQEAAGPREALS [R7G], which protein stability index is on record?
**A.** 3.45

**Q.** Which protein stability index does the source give for PEASHLAFRRFRFQEAAGPREALS [R7A] here?
**A.** 3.14

**Q.** Which protein stability index does the source give for PMASHLRFRRFRFQEAAGPREALS [E2M] here?
**A.** 1.75

**Q.** Which protein stability index does the source give for PLASHLRFRRFRFQEAAGPREALS [E2L] here?
**A.** 1.29

**Q.** Which protein stability index does the source give for PFASHLRFRRFRFQEAAGPREALS [E2F] here?
**A.** 1.73

**Q.** With PWASHLRFRRFRFQEAAGPREALS [E2W] as the variant, how does the protein stability index read?
**A.** 1.52

**Q.** For PEASHLRFRRFRFQEALGPREALS [A17L], which protein stability index is on record?
**A.** 2.21

**Q.** For PEASHLRFRRFRFQEADGPREALS [A17D], which protein stability index is on record?
**A.** 3.42

**Q.** Which protein stability index does the source give for PEASHLRFRRFRFQEAIGPREALS [A17I] here?
**A.** 2.15

**Q.** Which protein stability index does the source give for PEASHLRFRRFRFQEASGPREALS [A17S] here?
**A.** 2.54

**Q.** For PEASHLRFRNFRFQEAAGPREALS [R10N], which protein stability index is on record?
**A.** 2.35

**Q.** Which protein stability index does the source give for PEASHLRFRLFRFQEAAGPREALS [R10L] here?
**A.** 2.49

**Q.** Which protein stability index does the source give for PEASHLRFRPFRFQEAAGPREALS [R10P] here?
**A.** 2.11

**Q.** With PEASHLRFRWFRFQEAAGPREALS [R10W] as the variant, how does the protein stability index read?
**A.** 3.23

**Q.** For PEASHLRFRRFRLQEAAGPREALS [F13L], which protein stability index is on record?
**A.** 2.65

**Q.** With PEASHLRFRRFRNQEAAGPREALS [F13N] as the variant, how does the protein stability index read?
**A.** 3.8

**Q.** Which protein stability index does the source give for PEASHLRFRRFRKQEAAGPREALS [F13K] here?
**A.** 4.07

**Q.** With PEASHLRFRRFRQQEAAGPREALS [F13Q] as the variant, how does the protein stability index read?
**A.** 4.18

**Q.** For PEASHLRFRRFRFDEAAGPREALS [Q14D], which protein stability index is on record?
**A.** 4.9

**Q.** With PEASHLRFRRFRFGEAAGPREALS [Q14G] as the variant, how does the protein stability index read?
**A.** 3.68

**Q.** With PEASHLRFRRFRFPEAAGPREALS [Q14P] as the variant, how does the protein stability index read?
**A.** 3.29

**Q.** With PEASHLRFRRFRFWEAAGPREALS [Q14W] as the variant, how does the protein stability index read?
**A.** 2.87

**Q.** For PEASHLRFRRFRFAEAAGPREALS [Q14A], which protein stability index is on record?
**A.** 1.81

**Q.** For PEASHLRFRRFRFYEAAGPREALS [Q14Y], which protein stability index is on record?
**A.** 2.26

**Q.** With PEASGLRFRRFRFQEAAGPREALS [H5G] as the variant, how does the protein stability index read?
**A.** 2.44

**Q.** For PEAGHLRFRRFRFQEAAGPREALS [S4G], which protein stability index is on record?
**A.** 2.76

**Q.** For PEARHLRFRRFRFQEAAGPREALS [S4R], which protein stability index is on record?
**A.** 2.19

**Q.** Which protein stability index does the source give for PEAFHLRFRRFRFQEAAGPREALS [S4F] here?
**A.** 1.87

**Q.** Which protein stability index does the source give for PEAKHLRFRRFRFQEAAGPREALS [S4K] here?
**A.** 2.04

**Q.** With PEASHLRFRRFRFQEAAGPDEALS [R20D] as the variant, how does the protein stability index read?
**A.** 2.9

**Q.** Which protein stability index does the source give for PEASHLRFRRFRFQEAAGPNEALS [R20N] here?
**A.** 2.99

**Q.** With PEASHLRFRRFRFQEAAGPCEALS [R20C] as the variant, how does the protein stability index read?
**A.** 2.21

**Q.** For PEASHLRFRRFRFQEAAGPGEALS [R20G], which protein stability index is on record?
**A.** 2.25

**Q.** With PEASHLRFRRFRFQEAAGPIEALS [R20I] as the variant, how does the protein stability index read?
**A.** 2.48

**Q.** For PEASHLRFRRNRFQEAAGPREALS [F11N], which protein stability index is on record?
**A.** 4.33

**Q.** Which protein stability index does the source give for PEASHLRFRRKRFQEAAGPREALS [F11K] here?
**A.** 3.85

**Q.** With PEASHLRFRRYRFQEAAGPREALS [F11Y] as the variant, how does the protein stability index read?
**A.** 2.76

**Q.** Which protein stability index does the source give for PEASHLRFRRFRFQEAAGWREALS [P19W] here?
**A.** 2.04

**Q.** Which protein stability index does the source give for PEASHLRFRRFRFQEAAGGREALS [P19G] here?
**A.** 3.11

**Q.** For PEASHLRFRRFRFQEAAGVREALS [P19V], which protein stability index is on record?
**A.** 2.21

**Q.** For PEASHLRFRRFRFQEAAGDREALS [P19D], which protein stability index is on record?
**A.** 2.8

**Q.** With PEASHLRFRRFRFQEAAGTREALS [P19T] as the variant, how does the protein stability index read?
**A.** 3.26

**Q.** Which protein stability index does the source give for PEASHLRFRRFRFQEAAGPREAES [L23E] here?
**A.** 3.5

**Q.** Which protein stability index does the source give for PEASHLRFRRFRFQEAAGPREAPS [L23P] here?
**A.** 2.9

**Q.** For PEASHLRFRRFRFQEAAGPREAAS [L23A], which protein stability index is on record?
**A.** 3.44

**Q.** For PEASHLRFRRFRFQEAAGPREAHS [L23H], which protein stability index is on record?
**A.** 3.05

**Q.** With PEASHLRFRRFRFQEAAGPREAKS [L23K] as the variant, how does the protein stability index read?
**A.** 3.35

**Q.** With PEASHLRFRRFRFQEAAGPREAIS [L23I] as the variant, how does the protein stability index read?
**A.** 2.48

**Q.** For PEASHLRFRRFRFQEAASPREALS [G18S], which protein stability index is on record?
**A.** 2.96

**Q.** For PEASHLRFRRFRFQEAALPREALS [G18L], which protein stability index is on record?
**A.** 2.21

**Q.** With PEASHLRFRRFRFQEAAHPREALS [G18H] as the variant, how does the protein stability index read?
**A.** 2.98

**Q.** Which protein stability index does the source give for PEASHLRFRRFRFQEAADPREALS [G18D] here?
**A.** 2.64

**Q.** For PEASHLRFRRFRFQEAAVPREALS [G18V], which protein stability index is on record?
**A.** 2.38

**Q.** With PEASHLRFRRFRFQEAANPREALS [G18N] as the variant, how does the protein stability index read?
**A.** 2.83

**Q.** For PEASHLRFRRFRFQEAAQPREALS [G18Q], which protein stability index is on record?
**A.** 2.81

**Q.** For PEASHLRFRRFRFQEAAYPREALS [G18Y], which protein stability index is on record?
**A.** 2.14

**Q.** For PEASHLRFRRFRFQFAAGPREALS [E15F], which protein stability index is on record?
**A.** 1.53

**Q.** For PEASHLRFRRFRFQIAAGPREALS [E15I], which protein stability index is on record?
**A.** 1.78

**Q.** Which protein stability index does the source give for PEASHLRFRRFRFQDAAGPREALS [E15D] here?
**A.** 2.09

**Q.** Which protein stability index does the source give for PEASHLRFRRFHFQEAAGPREALS [R12H] here?
**A.** 3.14

**Q.** With YEASHLRFRRFRFQEAAGPREALS [P1Y] as the variant, how does the protein stability index read?
**A.** 2.3

**Q.** With GEASHLRFRRFRFQEAAGPREALS [P1G] as the variant, how does the protein stability index read?
**A.** 2.8

**Q.** Which protein stability index does the source give for DEASHLRFRRFRFQEAAGPREALS [P1D] here?
**A.** 2.65

**Q.** With IEASHLRFRRFRFQEAAGPREALS [P1I] as the variant, how does the protein stability index read?
**A.** 2.71

**Q.** With FEASHLRFRRFRFQEAAGPREALS [P1F] as the variant, how does the protein stability index read?
**A.** 3.44

**Q.** For PEASHLRFRRFRFQEAAGPREALT [S24T], which protein stability index is on record?
**A.** 2.22

**Q.** For PEASHLRFRRFRFQEAAGPREALW [S24W], which protein stability index is on record?
**A.** 2.37

**Q.** With PEASHLRFRRFRFQEAAGPREALE [S24E] as the variant, how does the protein stability index read?
**A.** 2.79

**Q.** With PEASHLRFRRFRFQEAAGPREALR [S24R] as the variant, how does the protein stability index read?
**A.** 2.69

**Q.** Which protein stability index does the source give for PEASHVRFRRFRFQEAAGPREALS [L6V] here?
**A.** 3.36

**Q.** Which protein stability index does the source give for PEASHYRFRRFRFQEAAGPREALS [L6Y] here?
**A.** 1.66
